Reference: the Human Domainome abundance scans (Beltran et al. 2025)
± gives the uncertainty stated by the source.

B1: SWI/SNF-related matrix-associated actin-dependent regulator of chromatin subfamily B member 1, residues 181 to 248; numbered along this chain, Q12824 (parent)
chain: SQPEVLVPIRLDMEIDGQKLRDAFTWNMNEKLMTPEMFSEILCDDLDLNPLTFVPAIASAIRQQIESY

Variants of: B1
Assay: abundance fitness (aPCA) (normalised: wild type 0, dead -1); higher = more abundant; growth selection in yeast, the domain comes from the species named
Settings: Homo sapiens

Variant	abundance fitness
SQPEVRVPIRLDMEIDGQKLRDAFTWNMNEKLMTPEMFSEILCDDLDLNPLTFVPAIASAIRQQIESY [L6R]	-0.078 ± 0.06
SQPEVIVPIRLDMEIDGQKLRDAFTWNMNEKLMTPEMFSEILCDDLDLNPLTFVPAIASAIRQQIESY [L6I]	-0.03 ± 0.43
SQPEVAVPIRLDMEIDGQKLRDAFTWNMNEKLMTPEMFSEILCDDLDLNPLTFVPAIASAIRQQIESY [L6A]	-0.219 ± 0.24
SQPEVSVPIRLDMEIDGQKLRDAFTWNMNEKLMTPEMFSEILCDDLDLNPLTFVPAIASAIRQQIESY [L6S]	0.036 ± 0.06
SQPEVQVPIRLDMEIDGQKLRDAFTWNMNEKLMTPEMFSEILCDDLDLNPLTFVPAIASAIRQQIESY [L6Q]	-0.217 ± 0.29
SQPEVHVPIRLDMEIDGQKLRDAFTWNMNEKLMTPEMFSEILCDDLDLNPLTFVPAIASAIRQQIESY [L6H]	-0.212 ± 0.13
SQPEVTVPIRLDMEIDGQKLRDAFTWNMNEKLMTPEMFSEILCDDLDLNPLTFVPAIASAIRQQIESY [L6T]	-0.126 ± 0.082
SQPEVGVPIRLDMEIDGQKLRDAFTWNMNEKLMTPEMFSEILCDDLDLNPLTFVPAIASAIRQQIESY [L6G]	-0.217 ± 0.089
SQPEVMVPIRLDMEIDGQKLRDAFTWNMNEKLMTPEMFSEILCDDLDLNPLTFVPAIASAIRQQIESY [L6M]	0.141 ± 0.083
SQPEVFVPIRLDMEIDGQKLRDAFTWNMNEKLMTPEMFSEILCDDLDLNPLTFVPAIASAIRQQIESY [L6F]	-0.236 ± 0.12
SQPTVLVPIRLDMEIDGQKLRDAFTWNMNEKLMTPEMFSEILCDDLDLNPLTFVPAIASAIRQQIESY [E4T]	-0.281 ± 0.11
SQPSVLVPIRLDMEIDGQKLRDAFTWNMNEKLMTPEMFSEILCDDLDLNPLTFVPAIASAIRQQIESY [E4S]	-0.331 ± 0.062
SQPIVLVPIRLDMEIDGQKLRDAFTWNMNEKLMTPEMFSEILCDDLDLNPLTFVPAIASAIRQQIESY [E4I]	-0.495 ± 0.17
SQPFVLVPIRLDMEIDGQKLRDAFTWNMNEKLMTPEMFSEILCDDLDLNPLTFVPAIASAIRQQIESY [E4F]	-0.294 ± 0.098
SQPWVLVPIRLDMEIDGQKLRDAFTWNMNEKLMTPEMFSEILCDDLDLNPLTFVPAIASAIRQQIESY [E4W]	-0.599 ± 0.1
SQPGVLVPIRLDMEIDGQKLRDAFTWNMNEKLMTPEMFSEILCDDLDLNPLTFVPAIASAIRQQIESY [E4G]	-0.354 ± 0.17
SQPCVLVPIRLDMEIDGQKLRDAFTWNMNEKLMTPEMFSEILCDDLDLNPLTFVPAIASAIRQQIESY [E4C]	-0.32 ± 0.063
SQPRVLVPIRLDMEIDGQKLRDAFTWNMNEKLMTPEMFSEILCDDLDLNPLTFVPAIASAIRQQIESY [E4R]	-0.234 ± 0.041
SQPLVLVPIRLDMEIDGQKLRDAFTWNMNEKLMTPEMFSEILCDDLDLNPLTFVPAIASAIRQQIESY [E4L]	-0.292 ± 0.056
SQPVVLVPIRLDMEIDGQKLRDAFTWNMNEKLMTPEMFSEILCDDLDLNPLTFVPAIASAIRQQIESY [E4V]	0.047 ± 0.12

Variant	abundance fitness
SQPAVLVPIRLDMEIDGQKLRDAFTWNMNEKLMTPEMFSEILCDDLDLNPLTFVPAIASAIRQQIESY [E4A]	-0.166 ± 0.062
SQPDVLVPIRLDMEIDGQKLRDAFTWNMNEKLMTPEMFSEILCDDLDLNPLTFVPAIASAIRQQIESY [E4D]	-0.031 ± 0.088
SQPMVLVPIRLDMEIDGQKLRDAFTWNMNEKLMTPEMFSEILCDDLDLNPLTFVPAIASAIRQQIESY [E4M]	-0.201 ± 0.074
SQPPVLVPIRLDMEIDGQKLRDAFTWNMNEKLMTPEMFSEILCDDLDLNPLTFVPAIASAIRQQIESY [E4P]	-0.024 ± 0.062
SQPQVLVPIRLDMEIDGQKLRDAFTWNMNEKLMTPEMFSEILCDDLDLNPLTFVPAIASAIRQQIESY [E4Q]	-0.182 ± 0.075
SQPEWLVPIRLDMEIDGQKLRDAFTWNMNEKLMTPEMFSEILCDDLDLNPLTFVPAIASAIRQQIESY [V5W]	-0.312 ± 0.37
SQPEDLVPIRLDMEIDGQKLRDAFTWNMNEKLMTPEMFSEILCDDLDLNPLTFVPAIASAIRQQIESY [V5D]	0.045 ± 0.095
SQPEMLVPIRLDMEIDGQKLRDAFTWNMNEKLMTPEMFSEILCDDLDLNPLTFVPAIASAIRQQIESY [V5M]	-0.107 ± 0.28
SQPECLVPIRLDMEIDGQKLRDAFTWNMNEKLMTPEMFSEILCDDLDLNPLTFVPAIASAIRQQIESY [V5C]	0.116 ± 0.077
SQPEKLVPIRLDMEIDGQKLRDAFTWNMNEKLMTPEMFSEILCDDLDLNPLTFVPAIASAIRQQIESY [V5K]	-0.051 ± 0.31
SQPEELVPIRLDMEIDGQKLRDAFTWNMNEKLMTPEMFSEILCDDLDLNPLTFVPAIASAIRQQIESY [V5E]	-0.103 ± 0.15
SQPEYLVPIRLDMEIDGQKLRDAFTWNMNEKLMTPEMFSEILCDDLDLNPLTFVPAIASAIRQQIESY [V5Y]	-0.096 ± 0.14
SQPEGLVPIRLDMEIDGQKLRDAFTWNMNEKLMTPEMFSEILCDDLDLNPLTFVPAIASAIRQQIESY [V5G]	-0.302 ± 0.1
SQPEPLVPIRLDMEIDGQKLRDAFTWNMNEKLMTPEMFSEILCDDLDLNPLTFVPAIASAIRQQIESY [V5P]	-0.366 ± 0.2
SQPERLVPIRLDMEIDGQKLRDAFTWNMNEKLMTPEMFSEILCDDLDLNPLTFVPAIASAIRQQIESY [V5R]	-0.205 ± 0.053
SQPEILVPIRLDMEIDGQKLRDAFTWNMNEKLMTPEMFSEILCDDLDLNPLTFVPAIASAIRQQIESY [V5I]	-0.438 ± 0.23
SQPEALVPIRLDMEIDGQKLRDAFTWNMNEKLMTPEMFSEILCDDLDLNPLTFVPAIASAIRQQIESY [V5A]	-0.086 ± 0.26
SQPESLVPIRLDMEIDGQKLRDAFTWNMNEKLMTPEMFSEILCDDLDLNPLTFVPAIASAIRQQIESY [V5S]	-0.174 ± 0.11
SQPEHLVPIRLDMEIDGQKLRDAFTWNMNEKLMTPEMFSEILCDDLDLNPLTFVPAIASAIRQQIESY [V5H]	0.505 ± 0.19
